Data taken from US20110269161.

Experiments:
[1] = molecular target: T1, peptide C6 (TKRSGSVYEPPFR), derived from phosphorylase b kinase regulatory subunit beta (Ser26)
T1 chain: TKRSGSVYEPPFR

[2] = molecular target: T2, peptide C11 (NKRRGSVPILPFR), derived from erythrocyte membrane protein band 4.2 (Ser247)
T2 chain: NKRRGSVPILPFR

[3] = molecular target: T3, peptide E11 (RKRLISSVEDPFR), derived from tuberin (Ser1798)
T3 chain: RKRLISSVEDPFR

[4] = molecular target: T4, peptide G5 (SKRRNSEFEIPFR), derived from tryptophan 5-hydroxylase 1 (Ser58)
T4 chain: SKRRNSEFEIPFR

[5] = molecular target: T5, peptide F6 (RIRTQSFSLQPFR), derived from nitric-oxide synthase, endothelial (Ser1176)
T5 chain: RIRTQSFSLQPFR

[6] = molecular target: T6, peptide B6 (PKRKVSSAEGPFR), derived from nonhistone chromosomal protein HMG-14 (Ser6)
T6 chain: PKRKVSSAEGPFR

B1: 90 kDa ribosomal S6 kinases 1 (RSK1, 1-735), purified human active kinase (protein)
chain: MPLAQLKEPWPLMELVPLDPENGQTSGEEAGLQPSKDEGVLKEISITHHVKAGSEKADPSHFELLKVLGQGSFGKVFLVRKVTRPDSGHLYAMKVLKKATLKVRDRVRTKMERDILADVNHPFVVKLHYAFQTEGKLYLILDFLRGGDLFTRLSKEVMFTEEDVKFYLAELALGLDHLHSLGIIYRDLKPENILLDEEGHIKLTDFGLSKEAIDHEKKAYSFCGTVEYMAPEVVNRQGHSHSADWWSYGVLMFEMLTGSLPFQGKDRKETMTLILKAKLGMPQFLSTEAQSLLRALFKRNPANRLGSGPDGAEEIKRHVFYSTIDWNKLYRREIKPPFKPAVAQPDDTFYFDTEFTSRTPKDSPGIPPSAGAHQLFRGFSFVATGLMEDDGKPRAPQAPLHSVVQQLHGKNLVFSDGYVVKETIGVGSYSECKRCVHKATNMEYAVKVIDKSKRDPSEEIEILLRYGQHPNIITLKDVYDDGKHVYLVTELMRGGELLDKILRQKFFSEREASFVLHTIGKTVEYLHSQGVVHRDLKPSNILYVDESGNPECLRICDFGFAKQLRAENGLLMTPCYTANFVAPEVLKRQGYDEGCDIWSLGILLYTMLAGYTPFANGPSDTPEEILTRIGSGKFTLSGGNWNTVSETAKDLVSKMLHVDPHQRLTAKQVLQHPWVTQKDKLPQSQLSHQDLQLVKGAMAATYSALNSSKPTPQLKPIESSILAQRRVRKLPSTTL
[1]
  in vitro peptide phosphorylation by recombinant kinase (KAYAK, LC-MS): recombinant RSK1 could robustly phosphorylate peptides B6, C6, C11 and G5 in vitro
[2]
  in vitro peptide phosphorylation by recombinant kinase (KAYAK, LC-MS): recombinant RSK1 could robustly phosphorylate peptides B6, C6, C11 and G5 in vitro
[3]
  phosphorylation by purified kinase (KAYAK profiling of 90 peptides): is preferably phosphorylated by purified RSK1 enzyme
[4]
  in vitro peptide phosphorylation by recombinant kinase (KAYAK, LC-MS): recombinant RSK1 could robustly phosphorylate peptides B6, C6, C11 and G5 in vitro
[5]
  peptide phosphorylation, 100 µM peptide reacted individually: both RSK and Akt demonstrated strong phosphorylation
[6]
  in vitro peptide phosphorylation by recombinant kinase (KAYAK, LC-MS): recombinant RSK1 could robustly phosphorylate peptides B6, C6, C11 and G5 in vitro
